Reference: patent CN115819578A (WUHAN ABCLONAL INC, dated 2023)

T1: 重组人IL-5蛋白 (recombinant Human IL-5, R&D Systems 205-IL-005) (human, UniProt P05113 20-134)
T1 construct: Bought protein; also called 重组human IL-5; His-tag重组human IL-5
T1 sequence (looked up): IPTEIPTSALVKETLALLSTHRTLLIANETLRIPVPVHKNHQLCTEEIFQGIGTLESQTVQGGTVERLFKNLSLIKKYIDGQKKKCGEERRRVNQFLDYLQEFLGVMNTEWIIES


Target: T1, 重组人IL-5蛋白 (recombinant Human IL-5, R&D …)
Test: BLI (Probe Life Gator), antibody 2 μg/mL on proA probe, recombinant human IL-5 at 150 nM and 70 nM

| Binder | Kd |
| --- | --- |
| 兔单克隆抗体16D2 (anti-human IL-5 rabbit monoclonal antibody 16D2) (antibody, V domains shown, also called 16D2抗体; 抗人IL-5兔单克隆抗体16D2) VH: QEQLEESGGDLVKPEGSLTLTCTASGFSFSINYWICWVRQAPGKGLEWIACIYGGSSGSAYYATWAKGRFTISKTSSTTVTLQMTSLTAADTATYFCARDDEGGGIFYNLWGPGTLVTVSS VL: AYDMTQTPSSASEPVGGTVTIKCQASEDIYNLLAWYQQKPGQPPKLLIYSASTLASGVPSRFKGSGSGTEYTLTISDLECADAATYYCEQHYTPSNVHNTFGGGTEVVVKG | 4.03 nM |
| 兔单克隆抗体24A10 (anti-human IL-5 rabbit monoclonal antibody 24A10) (antibody, V domains shown, in the BLI assays it was unlabelled; also called 24A10抗体; 人IL-5兔单克隆抗体24A10) VH: QSLEESGGGLVQPEGSLTLTCTASGFSFSSSYYMCWVRQAPGKGLEWIGCIAAGSSGISYYASWAKGRFTISKTSSTTVTLQMTGLTAADTATYLCSRSCDIYSDGGTSFDLWGPGTLVTVSS VL: DVVMTQTPASVSEPVGGTVTIKCQASQSISSYLAWYQQKPGQPPKLLIYEASKLASGVPSRFKGSGSGTEFTLTISDLECADAATYYCESNYDITSSYFGGGTEVVVKG | 0.306 nM |
